Reference: patent US20120231005A1 (Merck Sharp & Dohme, published 2012)
Where a chain is given by its changes, count along the chain named.

B1: AX9 IgG2 (antibody)
heavy: EVQLLESGGGLVQPGGSLRLSCKASGYTFSSYWMHWVRQAPGKGLEWIGRIDPYNGGTKYNEKFKGKATISRDNSKNTLYLQMNSLRAEDTAVYYCARYGYYLGSYAMDYWGQGTLVTVSSASTKGPSVFPLAPCSRSTSESTAALGCLVKDYFPEPVTVSWNSGALTSGVHTFPAVLQSSGLYSLSSVVTVPSSNFGTQTYTCNVDHKPSNTKVDKTVERKCCVECPPCPAPPVAGPSVFLFPPKPKDTLMISRTPEVTCVVVDVSHEDPEVQFNWYVDGVEVHNAKTKPREEQFNSTFRVVSVLTVVHQDWLNGKEYKCKVSNKGLPAPIEKTISKTKGQPREPQVYTLPPSREEMTKNQVSLTCLVKGFYPSDIAVEWESNGQPENNYKTTPPMLDSDGSFFLYSKLTVDKSRWQQGNVFSCSVMHEALHNHYTQKSLSLSPGK
light: DIQMTQSPSSLSASVGDRVTITCRASQDVSKYLAWYQQKPGKAPKLLIYAASSLQSGVPSRFSGSGSGTDFTLTISSLQPEDFATYYCQVYDSSPNAYVFGGGTKVEIKRTVAAPSVFIFPPSDEQLKSGTASVVCLLNNFYPREAKVQWKVDNALQSGNSQESVTEQDSKDSTYSLSSTLTLSKADYEKHKVYACEVTHQGLSSPVTKSFNRGEC
B2: AX1 IgG2 (antibody)
heavy: EVQLLESGGGLVQPGGSLRLSCKASGFTFTSYYMHWVRQAPGKGLEWIGRINPDSGSTKYNEKFKGRATISRDNSKNTLYLQMNSLRAEDTAVYYCARGGRLSWDFDVWGQGTLVTVSSASTKGPSVFPLAPCSRSTSESTAALGCLVKDYFPEPVTVSWNSGALTSGVHTFPAVLQSSGLYSLSSVVTVPSSNFGTQTYTCNVDHKPSNTKVDKTVERKCCVECPPCPAPPVAGPSVFLFPPKPKDTLMISRTPEVTCVVVDVSHEDPEVQFNWYVDGVEVHNAKTKPREEQFNSTFRVVSVLTVVHQDWLNGKEYKCKVSNKGLPAPIEKTISKTKGQPREPQVYTLPPSREEMTKNQVSLTCLVKGFYPSDIAVEWESNGQPENNYKTTPPMLDSDGSFFLYSKLTVDKSRWQQGNVFSCSVMHEALHNHYTQKSLSLSPGK
light: B1 light with V29I, K31R, Q89A, V90A, S93Y, P95L, N96G, A97G, G102D
notes: Made in HEK293 cells or in glycoengineered Pichia
B3: AX189 IgG2 (antibody)
heavy: B1 heavy
light: B1 light with K31R, A34T, V90A, S93Y, P95L, N96S, A97G
notes: the leaderless entry is used
B4: AX1DG IgG2 (antibody, V domains shown)
VH: EVQLLESGGGLVQPGGSLRLSCKASGFTFTSYYMHWVRQAPGKGLEWIGRINPDSGSTKYNEKFKGRATISRDNSKNTLYLQMNSLRAEDTAVYYCARGGRLSWDFDVWGQGTLVTVSS
VL: DIQMTQSPSSLSASVGDRVTITCRASQDISRYLAWYQQKPGKAPKLLIYAASSLQSGVPSRFSGSGSGTDFTLTISSLQPEDFATYYCAAYDYSLGGYVFGGGTKVEIK
notes: IgG2; also called AXIDG
B5: AX9 IgG1 (antibody, V domains shown)
VH: EVQLLESGGGLVQPGGSLRLSCKASGYTFSSYWMHWVRQAPGKGLEWIGRIDPYNGGTKYNEKFKGKATISRDNSKNTLYLQMNSLRAEDTAVYYCARYGYYLGSYAMDYWGQGTLVTVSS
VL: B4 VL with I29V, R31K, A89Q, A90V, Y93S, L95P, G96N, G97A
B6: AX132 IgG2 (antibody, V domains shown)
VH: EVQLLESGGGLVQPGGSLRLSCKASGYTFSSYGMYWVRQAPGKGLEWIGWIDPGSGGTKYNEKFKGKATISRDNSKNTLYLQMNSLRAEDTAVYYCARERYGYYFDYWGQGTLVTVSS
VL: EIVLTQSPATLSLSPGERATITCRASQYVGSYLNWYQQKPGQAPRLLIYDASNRATGIPARFSGSGSGTDFTLTISSLEPEDFAVYYCQVWDSSPPVVFGGGTKVEIK

molecular target: rhesus PCSK9 (rhesus); assay: cell-based or functional assay

| Binder | IgG IC50 (nM), inhibition of PCSK9 on LDL uptake (Exopolar assay) |
| --- | --- |
| B1 | 28.6 nM |
| B2 | 11.2 nM |
| B3 | 9 nM |

molecular target: rhesus PCSK9 (rhesus); assay: affinity table, IgG2 (Biacore)

| Binder | Kd |
| --- | --- |
| B1 | 8.82 nM |
| B2 | 8.61 nM |
| B3 | 1.24 nM |
| B4 | 8.1 nM |

molecular target: T1, human PCSK9 (human, UniProt Q8NBP7 31-692, limits assumed); assay: cell-based or functional assay
T1 sequence (Q8NBP7 31-692 limits assumed): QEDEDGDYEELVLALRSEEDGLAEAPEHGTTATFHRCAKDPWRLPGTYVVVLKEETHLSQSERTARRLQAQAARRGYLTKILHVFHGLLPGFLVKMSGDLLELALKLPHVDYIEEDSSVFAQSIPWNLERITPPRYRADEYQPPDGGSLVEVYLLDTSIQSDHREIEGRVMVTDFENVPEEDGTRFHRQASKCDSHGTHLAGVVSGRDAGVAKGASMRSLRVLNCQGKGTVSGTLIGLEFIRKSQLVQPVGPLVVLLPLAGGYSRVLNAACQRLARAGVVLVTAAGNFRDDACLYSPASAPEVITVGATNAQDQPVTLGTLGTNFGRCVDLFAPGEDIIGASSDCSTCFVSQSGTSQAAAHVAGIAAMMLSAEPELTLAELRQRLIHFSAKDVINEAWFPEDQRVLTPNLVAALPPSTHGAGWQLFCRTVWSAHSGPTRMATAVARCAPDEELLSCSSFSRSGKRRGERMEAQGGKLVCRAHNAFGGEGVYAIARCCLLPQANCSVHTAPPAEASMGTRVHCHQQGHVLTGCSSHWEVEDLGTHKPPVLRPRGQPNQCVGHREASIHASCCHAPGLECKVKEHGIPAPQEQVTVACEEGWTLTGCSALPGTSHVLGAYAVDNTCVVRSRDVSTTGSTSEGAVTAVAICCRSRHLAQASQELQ

| Binder | IgG IC50 (nM), inhibition of PCSK9 on LDL uptake (Exopolar assay) |
| --- | --- |
| B1 | 25.5 nM |
| B2 | 7 nM |
| B3 | 9.4 nM |
| B4 | 7.4 nM |
| B5 | 10.7 nM |

molecular target: rhesus PCSK9 (rhesus, UniProt A8T644 31-692 (Pan troglodytes entry), limits assumed); assay: cell-based or functional assay

| Binder | IgG IC50 (nM), inhibition of PCSK9 on LDL uptake (Exopolar assay) |
| --- | --- |
| B5 | 30.3 nM |

molecular target: T1, human PCSK9; assay: affinity table, IgG2 (Biacore)
Experimental: (§1) The affinities of those IgG molecules were also measured by Biacore assay. Briefly, anti-human IgG monoclonal antibody form Human Antibody Capture Kit provided by Biacore was immobilized on CM5 chips at a level of 8000 to 10000 RU. […] After each round injection, the sensor chip surface was regenerated by 30 second injection of 3M Magnesium Chloride.

| Binder | Kd |
| --- | --- |
| B2 | 5.75 nM |
| B4 | 4.61 nM |

molecular target: T1, human PCSK9; assay: affinity table, IgG2 (Biacore); remark: another data set of the same source
Experimental: as §1

| Binder | Kd |
| --- | --- |
| B1 | 20.6 nM |
| B2 | 5.75 nM |
| B3 | 1.84 nM |
| B4 | 4.61 nM |
| B6 | 6.16 nM |

molecular target: T2, mouse PCSK9 (mouse, UniProt Q80W65 35-694, limits assumed); assay: affinity table, IgG2 (Biacore)
T2 construct: also called Mouse PCSK9 9
T2 sequence (Q80W65 35-694 limits assumed): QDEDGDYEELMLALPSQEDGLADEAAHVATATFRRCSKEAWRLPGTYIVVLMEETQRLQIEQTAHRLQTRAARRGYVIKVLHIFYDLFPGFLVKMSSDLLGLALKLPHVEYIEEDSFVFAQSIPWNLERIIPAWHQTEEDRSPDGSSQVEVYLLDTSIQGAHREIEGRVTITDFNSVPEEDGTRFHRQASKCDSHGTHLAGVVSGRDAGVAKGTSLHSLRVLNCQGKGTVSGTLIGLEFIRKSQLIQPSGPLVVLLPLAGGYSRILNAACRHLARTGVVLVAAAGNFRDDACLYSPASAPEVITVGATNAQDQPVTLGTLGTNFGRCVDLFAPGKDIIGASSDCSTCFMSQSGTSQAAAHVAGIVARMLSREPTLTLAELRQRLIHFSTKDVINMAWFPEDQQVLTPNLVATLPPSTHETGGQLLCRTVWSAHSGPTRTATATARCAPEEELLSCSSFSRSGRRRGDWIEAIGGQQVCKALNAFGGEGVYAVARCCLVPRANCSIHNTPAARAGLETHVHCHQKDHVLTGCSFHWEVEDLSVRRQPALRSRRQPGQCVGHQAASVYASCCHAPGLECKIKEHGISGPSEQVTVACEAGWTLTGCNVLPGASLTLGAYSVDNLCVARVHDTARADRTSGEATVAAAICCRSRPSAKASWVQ
Experimental: as §1

| Binder | binding result | Kd |
| --- | --- | --- |
| B1 | no binding |  |
| B2 | no binding |  |
| B4 | no binding |  |
| B6 |  | 2.76 nM |

molecular target: T3, rat PCSK9 (rat, UniProt P59996 31-691, limits assumed); assay: affinity table, IgG2 (Biacore)
T3 construct: also called rPCSK9
T3 sequence (P59996 31-691 limits assumed): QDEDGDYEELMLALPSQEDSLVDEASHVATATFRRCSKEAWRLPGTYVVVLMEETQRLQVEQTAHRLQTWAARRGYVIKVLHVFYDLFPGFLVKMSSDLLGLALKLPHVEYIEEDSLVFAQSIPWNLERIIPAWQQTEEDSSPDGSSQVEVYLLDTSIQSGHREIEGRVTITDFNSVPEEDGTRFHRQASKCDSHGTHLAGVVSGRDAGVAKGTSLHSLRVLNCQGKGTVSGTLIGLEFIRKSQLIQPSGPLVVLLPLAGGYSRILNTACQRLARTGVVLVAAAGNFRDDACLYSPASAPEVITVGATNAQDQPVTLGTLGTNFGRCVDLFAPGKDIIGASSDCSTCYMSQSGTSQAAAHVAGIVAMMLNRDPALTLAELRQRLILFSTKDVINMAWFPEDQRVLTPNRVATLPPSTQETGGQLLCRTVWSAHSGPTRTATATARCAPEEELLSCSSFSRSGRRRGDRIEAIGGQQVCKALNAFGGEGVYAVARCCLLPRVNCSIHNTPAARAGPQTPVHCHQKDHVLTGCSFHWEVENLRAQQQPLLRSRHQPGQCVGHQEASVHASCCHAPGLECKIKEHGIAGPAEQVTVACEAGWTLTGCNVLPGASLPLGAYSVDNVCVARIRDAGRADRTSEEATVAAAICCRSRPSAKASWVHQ
Experimental: as §1

| Binder | binding result | Kd |
| --- | --- | --- |
| B1 | no binding |  |
| B2 | no binding |  |
| B4 | no binding |  |
| B6 |  | 100 nM |

molecular target: rhesus PCSK9 (rhesus); assay: SPR (Biacore); IgG captured on anti-human IgG, PCSK9 injected

| Binder | Kd |
| --- | --- |
| B1 | 8.82 nM |
| B2 | 4.2 nM |
| B3 | 1.24 nM |
| B4 | 3.6 nM |

molecular target: T1, human PCSK9; assay: as above
Experimental: as §1

| Binder | Kd |
| --- | --- |
| B1 | 20.6 nM |
| B2 | 5.75 nM |
| B3 | 1.84 nM |
| B4 | 4.61 nM |

molecular target: T1, human PCSK9; assay: TR-FRET; antibody titrated against 10 nM AF647-PCSK9 and about 4 nM Eu-LDLR ectodomain
Experimental: After at least 90 minutes of equilibration, samples were read in a Rubystar reader (BMG Corp.) using 20 flashes per well, a 50 μsec integration delay, and a 200 μsec total integration time.

| Binder | IC50 |
| --- | --- |
| B1 | 4.1 nM |
| B2 | 1 nM |
| B3 | 6.4 nM |

molecular target: T4, human FcRn (human, UniProt P55899 24-297; P61769 21-119, limits assumed); assay: Biacore; human FcRn immobilised, 100 nM mAb bound at pH 6.0, read 5 s into dissociation at pH 7.3
T4 construct: Beta-2-microglobulin is not mentioned for the purified protein; also called human FeRn
T4 sequence (P55899 24-297 limits assumed, form in doubt, chain 1 of 2): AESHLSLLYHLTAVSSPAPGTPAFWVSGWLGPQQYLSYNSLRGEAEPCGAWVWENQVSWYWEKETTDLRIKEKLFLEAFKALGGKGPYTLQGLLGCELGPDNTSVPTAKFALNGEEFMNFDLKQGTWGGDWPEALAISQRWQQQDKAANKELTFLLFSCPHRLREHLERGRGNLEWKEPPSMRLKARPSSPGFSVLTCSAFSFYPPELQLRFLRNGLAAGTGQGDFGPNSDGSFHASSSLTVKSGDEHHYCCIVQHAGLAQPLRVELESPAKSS
T4 sequence (P61769 21-119 limits assumed, form in doubt, chain 2 of 2): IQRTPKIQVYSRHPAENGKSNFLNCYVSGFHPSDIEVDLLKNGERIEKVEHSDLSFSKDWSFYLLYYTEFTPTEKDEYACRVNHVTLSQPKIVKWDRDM
Experimental: The neutral pH dissociation of mAbs from human FeRn was measured by SPR using a Biacore T-100 instrument. Briefly, purified FeRn protein was immobilized onto a Biacore CM5 biosensor chip and PBSP (50 mM NaPO4, 150 mM NaCl and 0.05% (v/v) Surfactant 20) pH 7.3 was used as running buffer. The mAbs were diluted with PBSP pH 6.0 to 100 nM, allowed to bind FcRn for 3 minutes to reach equilibrium and followed by 1 minute of dissociation in pH 7.3 running buffer. A report point (Stability) was inserted at 5 seconds after the end of mAb binding and the “% bound” was calculated as RUStability/RUBinding (%).

| Binder | % bound (RUStability/RUBinding) |
| --- | --- |
| B1 | 1% |
| B2 | 5% |
| B3 | 0.9% |
